Target: RNA-binding protein EWS low-complexity domain (EWS^LCD, residues 1-264) (UniProt Q01844)
Experiment: condensate partitioning assay

percent (w/w) co-partitioned into condensates with EWS^LCD: 53 % w/w
Substance: EWS^RRM-RGG2 (central RNA-binding region of EWS: RNA-recognition motif and RGG2 domain) (domain or fragment)

Reference: article PMC12451834
